Reference: patent US20210179666A1 (REGENTS OF THE UNIVERSITY OF MINNESOTA, published 2021)
Like-named read-outs stand apart in the source and are kept apart here. Numbered stars: 1 amine (or outer) side, 2 acyl side, 3 side chain; on linkers, the order of the positions; unused ones are H or OH. Square brackets hold non-standard residues; d marks the D form. N(2-Aminoethyl)Gly = O=C(CN(CCN[*:3])[*:1])[*:2]; Gly(N-(CH2)3-guanidino) = N=C(N)NCCCNCC(=O)O; Nphe = O=C(O)CNCc1ccccc1; Dap = NC[C@H](N)C(=O)O; Sar = CNCC(=O)O

Assays:
[1] = target: T1, mouse melanocortin 3 receptor (mouse, UniProt P33033 1-323); experiment: cell-based or functional assay
[2] = target: T2, mouse melanocortin 5 receptor (mouse, UniProt P41149 1-325); experiment: cell-based or functional assay
[3] = target: T3, mouse melanocortin 1 receptor (mouse, UniProt Q01727 1-315); experiment: cell-based or functional assay
[4] = target: T4, mouse melanocortin 4 receptor (mouse, UniProt P56450 1-332); experiment: cell-based or functional assay
[5] = target: T3, mouse melanocortin 1 receptor; experiment: 125I-NDP-MSH competition, HEK293 cells
[6] = target: T1, mouse melanocortin 3 receptor; experiment: cell-based or functional assay; remark: listed apart in the source
[7] = target: T2, mouse melanocortin 5 receptor; experiment: cell-based or functional assay; remark: listed apart in the source
[8] = target: T4, mouse melanocortin 4 receptor; experiment: cell-based or functional assay; remark: listed apart in the source
[9] = target: T3, mouse melanocortin 1 receptor; experiment: cell-based or functional assay; remark: listed apart in the source
[10] = target: T5, human melanocortin 4 receptor (human, UniProt P32245 1-332); experiment: 125I-NDP-MSH competition, HEK293 cells
T5 construct: whole, on cells; the assays used the receptor on HEK293 cells; also called hMC4R

[11] = target: T4, mouse melanocortin 4 receptor; experiment: 125I-NDP-MSH competition; fold vs SEQ ID NO: 1 control
[12] = target: T5, human melanocortin 4 receptor; experiment: as above
[13] = target: T5, human melanocortin 4 receptor; experiment: cell-based or functional assay
[14] = target: T4, mouse melanocortin 4 receptor; experiment: 125I-NDP-MSH competition, HEK293 cells
[15] = target: T2, mouse melanocortin 5 receptor; experiment: 125I-NDP-MSH competition, HEK293 cells
[16] = target: T5, human melanocortin 4 receptor; experiment: 125I-NDP-MSH competition; fold vs SEQ ID NO: 2 control
[17] = target: T1, mouse melanocortin 3 receptor; experiment: as above
[18] = target: T4, mouse melanocortin 4 receptor; experiment: as above
[19] = target: T3, mouse melanocortin 1 receptor; experiment: as above
[20] = target: T1, mouse melanocortin 3 receptor; experiment: 125I-NDP-MSH competition, HEK293 cells
[21] = target: T2, mouse melanocortin 5 receptor; experiment: 125I-NDP-MSH competition; fold vs SEQ ID NO: 2 control

T1 sequence (P33033 whole entry): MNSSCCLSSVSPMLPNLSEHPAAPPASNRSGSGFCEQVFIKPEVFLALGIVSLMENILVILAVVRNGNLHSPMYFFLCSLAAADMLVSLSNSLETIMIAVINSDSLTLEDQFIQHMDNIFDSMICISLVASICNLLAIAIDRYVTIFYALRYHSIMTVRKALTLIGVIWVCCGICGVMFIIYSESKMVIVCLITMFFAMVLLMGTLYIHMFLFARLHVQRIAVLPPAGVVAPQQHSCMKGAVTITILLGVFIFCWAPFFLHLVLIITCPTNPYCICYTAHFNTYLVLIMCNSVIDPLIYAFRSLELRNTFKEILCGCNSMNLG
T2 sequence (P41149 whole entry): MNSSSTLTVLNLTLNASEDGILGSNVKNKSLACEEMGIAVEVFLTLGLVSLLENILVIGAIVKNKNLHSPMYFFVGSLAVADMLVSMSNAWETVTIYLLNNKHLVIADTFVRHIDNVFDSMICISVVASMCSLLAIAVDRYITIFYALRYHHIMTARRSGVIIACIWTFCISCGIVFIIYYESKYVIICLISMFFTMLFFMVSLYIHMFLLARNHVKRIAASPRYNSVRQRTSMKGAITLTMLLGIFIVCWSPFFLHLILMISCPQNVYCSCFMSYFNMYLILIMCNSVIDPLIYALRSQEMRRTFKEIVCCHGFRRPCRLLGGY
T5 sequence (P32245 whole entry): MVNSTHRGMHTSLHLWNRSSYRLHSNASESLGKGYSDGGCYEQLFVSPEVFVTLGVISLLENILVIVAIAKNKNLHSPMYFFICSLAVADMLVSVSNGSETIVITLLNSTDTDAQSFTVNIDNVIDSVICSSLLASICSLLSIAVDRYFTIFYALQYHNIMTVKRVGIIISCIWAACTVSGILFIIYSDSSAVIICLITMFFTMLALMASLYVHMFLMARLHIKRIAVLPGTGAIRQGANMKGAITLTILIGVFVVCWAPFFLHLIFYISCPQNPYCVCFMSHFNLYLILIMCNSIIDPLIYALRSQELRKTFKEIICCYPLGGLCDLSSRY
T3 sequence (Q01727 whole entry): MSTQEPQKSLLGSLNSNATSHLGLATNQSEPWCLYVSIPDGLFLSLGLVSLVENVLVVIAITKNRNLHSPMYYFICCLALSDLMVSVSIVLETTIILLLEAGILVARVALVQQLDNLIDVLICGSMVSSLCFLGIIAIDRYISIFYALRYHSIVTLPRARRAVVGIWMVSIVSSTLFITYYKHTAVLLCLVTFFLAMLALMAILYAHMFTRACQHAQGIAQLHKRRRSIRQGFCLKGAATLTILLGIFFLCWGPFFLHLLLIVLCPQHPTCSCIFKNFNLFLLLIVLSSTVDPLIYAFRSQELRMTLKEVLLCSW
T4 sequence (P56450 whole entry): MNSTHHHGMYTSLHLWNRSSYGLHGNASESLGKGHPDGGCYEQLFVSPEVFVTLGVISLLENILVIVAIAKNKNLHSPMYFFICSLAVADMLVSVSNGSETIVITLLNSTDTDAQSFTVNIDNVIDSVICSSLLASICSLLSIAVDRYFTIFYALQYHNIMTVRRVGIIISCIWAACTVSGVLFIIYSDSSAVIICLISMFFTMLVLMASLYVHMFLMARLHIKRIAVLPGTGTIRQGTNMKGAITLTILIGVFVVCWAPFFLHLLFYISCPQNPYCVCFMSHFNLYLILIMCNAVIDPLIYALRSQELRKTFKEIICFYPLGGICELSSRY

B1: MDE8-108-3c (peptide)
peptide: PRFFXAFP
modifications: head-to-tail cyclic; NArg (N-(3-guanidino-propyl)-glycine) at 2; Dap at 5; DPro at 8
EC50 (cAMP agonist) [1]: > 100 µM | pA2 (Schild analysis, agonist NDP-MSH, cAMP) [1]: 5.9 | EC50 (cAMP agonist) [2]: > 100 µM | EC50 (cAMP agonist) [3]: > 100 µM

cyclo(PRFFNA[Nphe][dP]) [MDE7-26-5c]
percent maximal stimulatory response at 100 µM (cAMP) [1]: 60% | pA2 (Schild analysis, agonist NDP-MSH, cAMP) [4]: < 5.5 | percent maximal stimulatory response at 100 µM (cAMP) [3]: 85%

PRFFXAFP (head-to-tail cyclic; Dap at 5; NPhe (N-benzylglycine) at 7; DPro at 8) [MDE8-108-7c]
EC50 (cAMP agonist) [1]: > 100 µM | Inverse Agonist, percent decrease from basal (cAMP) [2]: -10% | pA2 (Schild analysis, agonist NDP-MSH, cAMP) [4]: 6.6 | EC50 (cAMP agonist) [3]: > 100 µM

B2: MDE7-26-4c (peptide)
peptide: cyclo(PRFFN[Sar]F[dP])
SMILES: CN1CC(=O)N[C@@H](Cc2ccccc2)C(=O)N2CCC[C@@H]2C(=O)N2CCC[C@H]2C(=O)N[C@@H](CCCNC(=N)N)C(=O)N[C@@H](Cc2ccccc2)C(=O)N[C@@H](Cc2ccccc2)C(=O)N[C@@H](CC(N)=O)C1=O
pA2 (Schild analysis, agonist NDP-MSH, cAMP) [4]: < 5.5 | EC50 (cAMP agonist) [3]: 1 µM

cyclo(PRFF[N(2-Aminoethyl)Gly]AF[dP]) [MDE9-111c]
EC50 (cAMP agonist) [1]: > 100 µM | pA2 (Schild analysis, agonist NDP-MSH, cAMP) [1]: 6.9 | Inverse Agonist, percent decrease from basal (cAMP) [2]: -10% | percent maximal stimulatory response at 100 µM (cAMP) [3]: 60%

B3: MDE7-26-1c (peptide)
peptide: cyclo(P[Gly(N-(CH2)3-guanidino)]FFNAF[dP])
SMILES: C[C@@H]1NC(=O)[C@H](CC(N)=O)NC(=O)[C@H](Cc2ccccc2)NC(=O)[C@H](Cc2ccccc2)NC(=O)CN(CCCNC(=N)N)C(=O)[C@@H]2CCCN2C(=O)[C@H]2CCCN2C(=O)[C@H](Cc2ccccc2)NC1=O
pA2 (Schild analysis, agonist NDP-MSH, cAMP) [4]: < 5.5 | EC50 (cAMP partial agonist) [3]: 3.1 µM | Partial Agonist, percent of NDP-MSH (cAMP) [3]: 50%

PRFFXAFP (head-to-tail cyclic; Dap at 5; NAla (N-methylglycine) at 6; DPro at 8) [MDE8-108-6c]
EC50 (cAMP agonist) [1]: > 100 µM | pA2 (Schild analysis, agonist NDP-MSH, cAMP) [1]: 5.6 | EC50 (cAMP agonist) [2]: > 100 µM | pA2 (Schild analysis, agonist NDP-MSH, cAMP) [4]: 6.1 | EC50 (cAMP agonist) [3]: > 100 µM

PRFFXAFP (head-to-tail cyclic; NPhe (N-benzylglycine) at 3; Dap at 5; DPro at 8) [MDE9-32c]
EC50 (cAMP agonist) [1]: > 100 µM | pA2 (Schild analysis, agonist NDP-MSH, cAMP) [1]: 6.9 | EC50 (cAMP partial agonist) [2]: 0.55 µM | Partial Agonist, percent of NDP-MSH (cAMP) [2]: 70% | EC50 (cAMP partial agonist) [3]: 0.11 µM | Partial Agonist, percent of NDP-MSH (cAMP) [3]: 80%

cyclo(PRF[Nphe]NAF[dP]) [MDE9-88c]
pA2 (Schild analysis, agonist NDP-MSH, cAMP) [4]: 8.4 | EC50 (cAMP partial agonist) [3]: 5.6 µM | Partial Agonist, percent of NDP-MSH (cAMP) [3]: 70%

PRFFXAFP (head-to-tail cyclic; NPhe (N-benzylglycine) at 4; Dap at 5; DPro at 8) [MDE9-93c]
EC50 (cAMP agonist) [1]: > 100 µM | pA2 (Schild analysis, agonist NDP-MSH, cAMP) [1]: 7.1 | Inverse Agonist, percent decrease from basal (cAMP) [2]: -10% | EC50 (cAMP partial agonist) [3]: 2.7 µM | Partial Agonist, percent of NDP-MSH (cAMP) [3]: 60%

B4: 1 (MDE 6-82-3c) (peptide)
peptide: cyclo(PRFFNAF[dP])
modifications: also: assayed as TFA salt
notes: AgRP 111-116 loop cyclized through DPro-Pro; Asn5 parent scaffold; assayed as TFA salt; also called Compound 1; c[Pro-Arg-Phe-Phe-Asn-Ala-Phe-DPro]
IC50 [5]: 9 µM

B5: ZMK 2-96 (peptide)
peptide: cyclo(PHFFNAF[dP])
notes: Arg111His SNP in the Asn scaffold; also called c[Pro-His-Phe-Phe-Asn-Ala-Phe-DPro]
EC50 (cAMP agonist) [6]: > 100 µM | pA2 (Schild analysis, agonist NDP-MSH, cAMP) [6]: < 5 | EC50 (cAMP agonist) [7]: > 100 µM | EC50 (cAMP agonist) [8]: > 100 µM | pA2 (Schild analysis, agonist NDP-MSH, cAMP) [8]: 5.3 | percent maximal stimulatory response at 100 µM (cAMP) [9]: 23% | IC50 [10]: 22 µM | Fold Diff [11]: 300 fold | Fold Diff [12]: 300 fold | pA2 (Schild analysis, agonist NDP-MSH, cAMP) [13]: 5.8 | IC50 [14]: 6.7 µM

B6: ZMK 2-110 (peptide)
peptide: cyclo(PRYFNAF[dP])
notes: Phe112Tyr SNP in the Asn scaffold; also called c[Pro-Arg-Tyr-Phe-Asn-Ala-Phe-DPro]
EC50 (cAMP agonist) [6]: > 100 µM | pA2 (Schild analysis, agonist NDP-MSH, cAMP) [6]: 5.8 | EC50 (cAMP agonist) [8]: > 100 µM | pA2 (Schild analysis, agonist NDP-MSH, cAMP) [8]: 6.1 | EC50 (cAMP agonist) [9]: > 100 µM | IC50 [10]: 14.3 µM | Fold Diff [11]: 100 fold | Fold Diff [12]: 2000 fold | pA2 (Schild analysis, agonist NDP-MSH, cAMP) [13]: 6.5 | IC50 [14]: 2 µM

B7: 2 (MDE 6-82-1c) (peptide)
peptide: PRFFXAFP
modifications: head-to-tail cyclic; Dap (diaminopropionic acid) at 5; DPro at 8
notes: Dap5 parent scaffold; assayed as TFA salt; also called Compound 2; c[Pro-Arg-Phe-Phe-Dap-Ala-Phe-DPro]
pA2 (Schild analysis, agonist NDP-MSH, cAMP) [1]: 6.5 | percent maximal stimulatory response at 100 µM (cAMP) [1]: 20% | Inverse Agonist, percent decrease from basal (cAMP) [2]: -10% | percent maximal stimulatory response at 100 µM (cAMP) [3]: 36% | IC50 [15]: 1.7 µM | IC50 [5]: 5.2 µM

B8: ZMK 3-20 (peptide)
peptide: cyclo(PCFF[Dap]AF[dP])
notes: Arg111Cys SNP in the Dap scaffold; also called c[Pro-Cys-Phe-Phe-Dap-Ala-Phe-DPro]
pA2 (Schild analysis, agonist NDP-MSH, cAMP) [6]: < 5 | percent maximal stimulatory response at 100 µM (cAMP) [6]: 29% | EC50 (cAMP agonist) [7]: > 100 µM | pA2 (Schild analysis, agonist NDP-MSH, cAMP) [8]: < 5 | percent maximal stimulatory response at 100 µM (cAMP) [8]: 42% | EC50 (cAMP agonist) [9]: 4 µM | IC50 [10]: 15.7 µM | Fold Diff [16]: 2100 fold | Fold Diff [17]: 15 fold | Fold Diff [18]: 5200 fold | Fold Diff [19]: 6 fold | pA2 (Schild analysis, agonist NDP-MSH, cAMP) [13]: < 5 | IC50 [20]: 49 µM | IC50 [14]: 10 µM | IC50 [5]: 33 µM

B9: ZMK 2-112 (peptide)
peptide: cyclo(PRYF[Dap]AF[dP])
notes: Phe112Tyr SNP in the Dap scaffold; also called c[Pro-Arg-Tyr-Phe-Dap-Ala-Phe-DPro]
EC50 (cAMP agonist) [6]: > 100 µM | pA2 (Schild analysis, agonist NDP-MSH, cAMP) [6]: 6.5 | EC50 (cAMP agonist) [7]: > 100 µM | pA2 (Schild analysis, agonist NDP-MSH, cAMP) [7]: 6.5 | EC50 (cAMP agonist) [8]: > 100 µM | pA2 (Schild analysis, agonist NDP-MSH, cAMP) [8]: 7.3 | percent maximal stimulatory response at 100 µM (cAMP) [9]: 48% | IC50 [10]: 1.02 µM | Fold Diff [16]: 100 fold | Fold Diff [17]: 9 fold | Fold Diff [21]: 20 fold | Fold Diff [18]: 70 fold | Fold Diff [19]: 4 fold | pA2 (Schild analysis, agonist NDP-MSH, cAMP) [13]: 7.5 | IC50 [20]: 28 µM | IC50 [15]: 36 µM | IC50 [14]: 0.134 µM | IC50 [5]: 18 µM

B10: ZMK 2-99 (peptide)
peptide: cyclo(PHFF[Dap]AF[dP])
notes: Arg111His SNP in the Dap scaffold; also called c[Pro-His-Phe-Phe-Dap-Ala-Phe-DPro]
EC50 (cAMP agonist) [6]: > 100 µM | pA2 (Schild analysis, agonist NDP-MSH, cAMP) [6]: 5.4 | EC50 (cAMP agonist) [7]: > 100 µM | EC50 (cAMP agonist) [8]: > 100 µM | pA2 (Schild analysis, agonist NDP-MSH, cAMP) [8]: 6 | percent maximal stimulatory response at 100 µM (cAMP) [9]: 56% | IC50 [10]: 2.7 µM | Fold Diff [16]: 400 fold | Fold Diff [17]: 5 fold | Fold Diff [21]: 7 fold | Fold Diff [18]: 500 fold | Fold Diff [19]: 5 fold | pA2 (Schild analysis, agonist NDP-MSH, cAMP) [13]: 6.4 | IC50 [20]: 15 µM | IC50 [15]: 12 µM | IC50 [14]: 1 µM | IC50 [5]: 25 µM

B11: ZMK 2-85 (peptide)
peptide: cyclo(PRFF[Dap]VF[dP])
notes: Ala115Val SNP in the Dap scaffold; also called c[Pro-Arg-Phe-Phe-Dap-Val-Phe-DPro]
pA2 (Schild analysis, agonist NDP-MSH, cAMP) [6]: 6.1 | percent maximal stimulatory response at 100 µM (cAMP) [6]: 27% | EC50 (cAMP agonist) [7]: > 100 µM | pA2 (Schild analysis, agonist NDP-MSH, cAMP) [7]: 6.3 | percent maximal stimulatory response at 100 µM (cAMP) [8]: 37% | percent maximal stimulatory response at 100 µM (cAMP) [9]: 79% | IC50 [10]: 0.0322 µM | pA2 (Schild analysis, agonist NDP-MSH, cAMP) [13]: 7.6 | IC50 [20]: 10 µM | IC50 [15]: 2.7 µM | IC50 [5]: 8 µM

cyclo(PR[Nphe]FNAF[dP]) [MDE9-77c]
pA2 (Schild analysis, agonist NDP-MSH, cAMP) [4]: < 5.5 | EC50 (cAMP agonist) [3]: 0.24 µM
